{"source": "paper PMC11303871", "about": "(The Journal of Cell Biology, 2024)", "binders": {"B1": {"name": "CDK-1 phosphorylated at T179 (pT179 CDK-1), endogenous (enzyme)", "chain": "not shown", "modifications": "phosphothreonine at 179 (pT179)"}, "B2": {"name": "CDK-1 (C. elegans Cdk1), endogenous (enzyme)", "chain": "not shown"}, "B3": {"name": "CDK-1 phosphorylated at Y33 (pY33 CDK-1), endogenous (enzyme)", "chain": "not shown", "modifications": "phosphotyrosine at 33 (pY33)"}}, "biological_target": "T1, 3xFlag::CYB-3 (in situ-tagged cyclin B3) (C. elegans, UniProt Q10654 1-385)", "T1 sequence": "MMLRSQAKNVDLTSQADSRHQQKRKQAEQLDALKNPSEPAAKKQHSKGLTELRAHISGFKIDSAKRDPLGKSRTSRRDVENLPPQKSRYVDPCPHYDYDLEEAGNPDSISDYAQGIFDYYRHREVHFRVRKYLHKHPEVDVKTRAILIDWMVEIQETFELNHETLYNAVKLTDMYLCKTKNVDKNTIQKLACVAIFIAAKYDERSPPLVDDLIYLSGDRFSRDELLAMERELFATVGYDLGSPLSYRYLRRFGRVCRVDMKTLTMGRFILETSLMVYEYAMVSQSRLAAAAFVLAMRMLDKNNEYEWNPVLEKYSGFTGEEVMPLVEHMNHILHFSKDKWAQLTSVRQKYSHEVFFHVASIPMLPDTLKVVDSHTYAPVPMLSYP", "experiment": "co-IP"}
{"binder": "B1", "values": [{"measurement": "amount of pT179 CDK-1 bound relative to CYB-1", "result": "~1.3", "unit": "fold"}]}
{"binder": "B2", "values": [{"measurement": "amount of CDK-1 bound relative to CYB-1", "result": "~1.3", "unit": "times"}]}
{"binder": "B3", "values": [{"measurement": "amount of pY33 CDK-1 bound relative to CYB-1", "result": "~1.3", "unit": "fold"}]}
